Numbering of substitutions follows the chain as printed. Where no end group is shown, it is not given here.

This is an account of results in paper PMC5413942, “Gating of TonB-dependent transporters by substrate-specific forced remodelling” (Nature Communications, 2017).

T1: wild-type BtuB (E. coli, UniProt P06129 21-614)
T1 construct: Cyanocobalamin was present at a 100-fold molar excess during reconstitution; also called vitamin B12 TBDT receptor of E. coli
T1 sequence (looked up): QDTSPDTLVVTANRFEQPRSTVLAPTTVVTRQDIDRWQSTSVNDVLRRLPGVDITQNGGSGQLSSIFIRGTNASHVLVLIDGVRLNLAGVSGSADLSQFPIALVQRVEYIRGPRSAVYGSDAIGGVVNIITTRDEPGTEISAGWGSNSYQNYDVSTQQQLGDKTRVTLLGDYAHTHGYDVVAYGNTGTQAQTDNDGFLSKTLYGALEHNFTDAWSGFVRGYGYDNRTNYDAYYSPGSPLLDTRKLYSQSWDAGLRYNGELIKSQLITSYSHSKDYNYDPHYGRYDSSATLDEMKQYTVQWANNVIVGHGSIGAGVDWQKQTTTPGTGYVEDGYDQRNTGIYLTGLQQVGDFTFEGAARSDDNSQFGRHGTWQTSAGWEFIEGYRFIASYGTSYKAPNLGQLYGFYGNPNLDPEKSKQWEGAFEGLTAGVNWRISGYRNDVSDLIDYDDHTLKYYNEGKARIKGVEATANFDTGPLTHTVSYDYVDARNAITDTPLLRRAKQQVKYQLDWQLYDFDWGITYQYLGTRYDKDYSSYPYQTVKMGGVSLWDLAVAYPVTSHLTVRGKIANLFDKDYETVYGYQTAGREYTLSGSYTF

T2: BtuB3A (BtuB I80A/L85A/L96A) (E. coli, UniProt P06129 21-614, I80A | L85A | L96A)
T2 sequence (looked up): T1 sequence (looked up) with I80A, L85A, L96A

T3: BtuB XL_(loop) (BtuB V29C/V45C) (E. coli, UniProt P06129 21-614, V29C | V45C, disulfide bridge between C29 and C45 (reduced on addition of 2 mM DTT))
T3 sequence (looked up): T1 sequence (looked up) with V29C, V45C

B1: TonBCTD (globular C-terminal domain of TonB without the linker) (domain or fragment)
chain: not shown
notes: Gly-Cys between the (His)6 tag and TonBCTD, translated from the printed forward primer (GGATGT); the cysteine is for AFM surface attachment; C-terminal domain of TonB of E. coli; also called TonB C-terminal domain; source: E. coli BL21 (DE3), pET-23a(+), purified (Ni Sepharose, size exclusion chromatography)
B2: Ton box peptide from BtuB (TB_(BtuB)) labelled with Alexa Fluor 488 C5 maleimide (peptide)
peptide: PDTLVVTANRGSWSC(Alexa Fluor 488 C5 maleimide)
notes: also called TB_(BtuB)-Alexa fluor 488; Ton box_(BtuB) peptide; source: synthetic peptide
B3: TonB_(ΔTMD) (soluble TonB, residues 33–239, deletion of the N-terminal transmembrane helix) (domain or fragment)
chain: not shown
notes: Gly-Cys between the (His)6 tag and TonB, translated from the printed forward primer (GGCTGT); the cysteine is for AFM surface attachment; TonB of E. coli, cloned from the genome of E. coli BL21 (DE3), residues 33-239 (without the transmembrane domain, residues 1-32); the forward primer begins at HQVIELP; In the AFM experiments the engineered cysteine was coupled to NHS-PEG24-maleimide on the …

What all share (settings): both partners purified
Assay [1] concerns the target T1, wild-type BtuB. Put plainly: single-molecule force spectroscopy (AFM); TonB construct on the AFM probe through NHS-PEG24-maleimide, TBDT (BtuB, its variants or FhuA) in E. coli polar lipid extract liposomes with its ligand adsorbed on mica; dwell 1 s, retraction 1,000 nm s^-1 unless stated otherwise; 25 mM Tris-HCl pH 8.0, 128 mM NaCl, 25 °C; 2 mM DTT added where stated.

Assay [2] concerns the target B3. In words: MST; Alexa Fluor 488-labelled TB_(BtuB) peptide at constant concentration (500 nM mixed 1:1), TonB_(ΔTMD) titrated 7 nM-244 μM in 16 dilutions; 25 mM Tris-HCl pH 7.5, 128 mM NaCl, 5 min at room temperature; fit by the law of mass action.
Assay [3] concerns the target T2, BtuB3A (BtuB I80A/L85A/L96A). In words: single-molecule force spectroscopy (AFM); TonB construct on the AFM probe through NHS-PEG24-maleimide, TBDT (BtuB, its variants or FhuA) in E. coli polar lipid extract liposomes with its ligand adsorbed on mica; dwell 1 s, retraction 1,000 nm s^-1 unless stated otherwise; 25 mM Tris-HCl pH 8.0, 128 mM NaCl, 25 °C; 2 mM DTT added where stated.

Assay [4] concerns the target T3, BtuB XL_(loop) (BtuB V29C/V45C). The description is as above.

In the case of B1, the binding result in assay [1] was “binds”. Regarding B2, the dissociation constant (Kd) in assay [2] turned out to be 9.4 ± 0.3 µM. Turning to B3, the binding result in assay [3] and in assay [4] was “binds” throughout.

As usually defined, the Kd is a measure of binding affinity in units of concentration. A higher Kd goes with weaker binding.
